Assay results from publication PMC3231237.

Key:
Case12 [1] = assay: SEC-MALS; sensor at 16 mg/mL, Ca2+-saturated (5 mM CaCl2 added, 1 h); Superdex 200, 50 mM Tris-HCl, 300 mM NaCl, pH 7.4, 1 mM CaCl2; monomer to dimer
Case12 [2] = assay: SEC-MALS; sensor at 4 mg/mL, Ca2+-saturated (5 mM CaCl2 added, 1 h); Superdex 200, 50 mM Tris-HCl, 300 mM NaCl, pH 7.4, 1 mM CaCl2; monomer to dimer
Case16 [3] = assay: SEC-MALS; sensor at 16 mg/mL, Ca2+-saturated (5 mM CaCl2 added, 1 h); Superdex 200, 50 mM Tris-HCl, 300 mM NaCl, pH 7.4, 1 mM CaCl2; monomer to dimer
Case16 [4] = assay: SEC-MALS; sensor at 4 mg/mL, Ca2+-saturated (5 mM CaCl2 added, 1 h); Superdex 200, 50 mM Tris-HCl, 300 mM NaCl, pH 7.4, 1 mM CaCl2; monomer to dimer

| percent dimer (Case12 [1]) [%] | stoichiometry N (Case12 [1]) | percent dimer (Case12 [2]) [%] | percent dimer (Case16 [3]) [%] | stoichiometry N (Case16 [3]) | percent dimer (Case16 [4]) [%] | Substance |
| --- | --- | --- | --- | --- | --- | --- |
| 22 | 2 | 3 |  |  |  | Case12 |
|  |  |  | 26 | 2 | 2 | Case16 |
